From US20210046160A1 (Synthorx, Inc., priority 2019, published 2021)

Key:
Type in all cases: cell-based
Human whole blood = test: Whole blood cytokine release assay (MSD U-plex: IFN-γ, IL-4, IL-5, IL-6, IL-8, TNF-α); design: unit not given here; details: for IL-4 level / IL-5 level: 90 ug/ml; for IFN-γ level, D1 / IL-6 level, D1 / IL-8 level, D1 / TNF-α level, D1 / IFN-γ level, D2 / IL-6 level, D2 / IL-8 level, D2 / TNF-α level, D2 / IFN-γ level, D3 / IL-6 level, D3 / IL-8 level, D3 / TNF-α level, D3 / IFN-γ level, D4 / IL-6 level, D4 / IL-8 level, D4 / TNF-α level, D4 / IFN-γ level, D5 / IL-6 level, D5 / IL-8 level, D5 / TNF-α level, D5 / IFN-γ level, D6 / IL-6 level, D6 / IL-8 level, D6 / TNF-α level, D6: 24 h, control conditions, conc. ug/ml: IgG4 iso 50, mouse IgG1,κ 100, PEM 90, NIVO 127, coated anti-CD3 100
Description: Cytokines released from the whole blood after treatment into the supernatant were measured using the Meso Scale Discovery (MSD) U-plex kit for six analytes (IFN-γ, IL-4, IL-5, IL-6, IL-8, TNF-α).
Blood in heparin tubes from 6 healthy donors were obtained from The Scripps Research Institute (TSRI; San Diego, Calif.) blood donor service. Samples were tested on the day of the collection; donors 1-3 on one day and donors 4-6 on another day.
A volume of 180 μL of prediluted whole blood was seeded onto a 96-well tissue culture plate. Then, 20 μL of 10× final test concentration of compounds was added to the assay plate. […] In addition, positive and negative controls were included to show the detection and specification of the assay: 100 μg/mL pre-coated Ultra LEAF mouse anti-human CD3 were used as the positive controls for the assay. […] […] No treatment also served as a negative control for the assay.
After adding the compound(s) to the well, the blood was incubated at 37° C. After centrifugation of the samples, supernatant was collected 24 h post treatment and stored at −80° C. before analysis. The human cytokines ([…], TNF-α, IL-8, IL-6, IL-5, IL-4) released from the assay were quantified with the MSD U-plex kit. The detection limit of each plate is reported from the MSD software, Discovery workbench. Each plate has a slightly different detection limit.

[1] = tested on: CD4+ T cells co-cultured with allogeneic monoDC; test: Allogeneic human mixed lymphocyte reaction (MLR) assay, IFN-γ secretion; details: single agents, 5 days of co-culture
Source text: The allogeneic human mixed lymphocyte reaction (MLR) assay was used to evaluate the ability of Compound B (IL-2_P65[AzK_L1_PEG30kD]-1) to enhance TCR activation as a single agent and in combination with a checkpoint inhibitor (nivolumab or pembrolizumab), as a model for cytolytic response to tumor cells presenting specific antigens or neoantigens.
Peripheral blood mononuclear cells (PBMCs) from two normal, healthy donors were used for each assay run. MonoDCs were generated by culturing monocytes isolated from PBMCs using a negative monocyte selection kit (Stemcell) in vitro for 7 days, involving addition of 1,500 IU/mL of IL-4 and 1,500 IU/mL of GM-CSF. The culture medium was replaced on Days 3 and 5. MonoDCs were collected on Day 7. On that day, CD4+ T cells were isolated from a different donor with a negative selection kit (Stemcell). […] Each run was set up in 3 replicates for each treatment condition. After 5 days of co-culture, IFN-γ secretion in culture supernatants was analyzed employing an enzyme-linked immunosorbent assay (ELISA) kit (Abcam; catalog #Ab46025). Clinical grade nivolumab was used to generate the data shown in FIG. 13, and research grade nivolumab (Selleckchem) was used to generate the data shown in FIG. 14. […] Data shown in FIGS. 12, 13, and 14 represent the mean of 3 replicates standard error of the mean from one donor pair.

CD8+ T cells = test: pSTAT5 concentration-response in human LRS-derived PBMC samples (flow cytometry): CD8+ T cells; details: Table 4, 45 min
Description: (§1) These studies were performed at PrimityBio LLC (Fremont, Calif.). […] Staining panel for flow cytometry study of LRS-derived PBMC samples include markers for Effector T cells (Teff: CD3+, CD4+, CD8+, CD127+), NK cells (CD3-, CD16+), and Regulatory T cells (Treg: CD3+, CD4+, CD8-, IL-2Rα+, CD127-1).
(§2) The EC50 values (pg/mL) was calculated from dose response curves generated from MFI plots. […]

CTLL-2 = CTLL-2 proliferation; details: Table 4
NK cells = test: pSTAT5 concentration-response in human LRS-derived PBMC samples (flow cytometry): NK cells; details: Table 4, 45 min
Description: as §1, §2

Treg cells = test: pSTAT5 concentration-response in human LRS-derived PBMC samples (flow cytometry): Treg cells; details: Table 4; for EC50 for pSTAT5 signaling, Treg Cells: human LRS samples, 45 min; for CD8/Treg ratio: ratio of pSTAT5 EC50 values
Description: as §1
The EC50 values (pg/mL) was calculated from dose response curves generated from MFI plots.
These studies were performed at PrimityBio LLC (Fremont, Calif.). […] Staining panel for flow cytometry study of LRS-derived PBMC samples include markers CD4, CD4+ memory central, CD4+ memory effect, CD4+ memory T cells, CD4+ Naive T cells, CD4+ T cells, CD8, CD8+ memory central, CD8+ memory effect, CD8+ memory T cells, CD8+ Naive T cells, CD8+ T cells, NK cells, and T regulatory cells.
Conjugates of Table 12 were synthesized by modification of SEQ NO. 1. These studies were performed at PrimityBio LLC (Fremont, Calif.).
The EC50 values (pg/ml) were calculated from dose response curves generated from the MFI plots.

Substance	IFN-γ level, D1 (Human whole blood; donor D1)	IL-6 level, D1 (Human whole blood; donor D1)	IL-8 level, D1 (Human whole blood; donor D1)	TNF-α level, D1 (Human whole blood; donor D1)	IFN-γ level, D2 (Human whole blood; donor D2)	IL-6 level, D2 (Human whole blood; donor D2)	IL-8 level, D2 (Human whole blood; donor D2)	TNF-α level, D2 (Human whole blood; donor D2)	IFN-γ level, D3 (Human whole blood; donor D3)	IL-6 level, D3 (Human whole blood; donor D3)	IL-8 level, D3 (Human whole blood; donor D3)	TNF-α level, D3 (Human whole blood; donor D3)	IFN-γ level, D4 (Human whole blood; donor D4)	IL-6 level, D4 (Human whole blood; donor D4)	IL-8 level, D4 (Human whole blood; donor D4)	TNF-α level, D4 (Human whole blood; donor D4)	IFN-γ level, D5 (Human whole blood; donor D5)	IL-6 level, D5 (Human whole blood; donor D5)	IL-8 level, D5 (Human whole blood; donor D5)	TNF-α level, D5 (Human whole blood; donor D5)	other results
pembrolizumab [reference compound]	52.78	1.09	22.01	2.33	9.62	0.39	8.48	0.68	8.80	0.92	11.36	1.67	11.71	0.65	23.29	0.97	301.71	8.95	95.5	5.88	IL-4 level (Human whole blood; donor D1): 0.10; IL-5 level (Human whole blood; donor D1): 1.03; IL-4 level (Human whole blood; donor D2): 0.03; IL-5 level (Human whole blood; donor D2): 0.72; IL-4 level (Human whole blood; donor D3): 0.03; IL-5 level (Human whole blood; donor D3): 0.79; IL-4 level (Human whole blood; donor D4): 0.09; IL-5 level (Human whole blood; donor D4): BDL; IL-4 level (Human whole blood; donor D5): BDL; IL-5 level (Human whole blood; donor D5): BDL; IL-4 level (Human whole blood; donor D6): BDL; IL-5 level (Human whole blood; donor D6): BDL; IFN-γ level, D6 (Human whole blood; donor D6): 10.08; IL-6 level, D6 (Human whole blood; donor D6): 1.06; IL-8 level, D6 (Human whole blood; donor D6): 28.32; TNF-α level, D6 (Human whole blood; donor D6): 1.43; release of IFN-γ [1]: induced the release of IFN-γ in a concentration-dependent manner
nivolumab [reference compound]	29.77	1.28	20.59	2.35	9.34	0.48	7.68	0.44	6.61	1.09	7.95	1.33	7.56	0.59	22.61	1.21	256.75	3.29	67.38	4.89	IFN-γ level, D6 (Human whole blood; donor D6): 9.51; IL-6 level, D6 (Human whole blood; donor D6): 0.62; IL-8 level, D6 (Human whole blood; donor D6): 19.68; TNF-α level, D6 (Human whole blood; donor D6): BDL; release of IFN-γ [1]: induced the release of IFN-γ in a concentration-dependent manner
F42_30 kD: IL-2 (SEQ ID NO: 4) PEGylated with 30 kD PEG via AzK at F42; presumably SEQ ID NO: 27																					EC50 for pSTAT5 signaling, CD8+ T Cells (CD8+ T cells): 107944 pg/mL; EC50, CTLL-2 proliferation (CTLL-2): 123,936 pg/mL; EC50 for pSTAT5 signaling, NK Cells (NK cells): 16397 pg/mL; EC50 for pSTAT5 signaling, Treg Cells (Treg cells): 36856 pg/mL; CD8/Treg ratio (Treg cells): 2.9
K43_30 kD: IL-2 (SEQ ID NO: 4) PEGylated with 30 kD PEG via AzK at K43; presumably SEQ ID NO: 28																					EC50 for pSTAT5 signaling, CD8+ T Cells (CD8+ T cells): 50504 pg/mL; EC50 for pSTAT5 signaling, NK Cells (NK cells): 9004 pg/mL; EC50 for pSTAT5 signaling, Treg Cells (Treg cells): 4797 pg/mL; CD8/Treg ratio (Treg cells): 10.5
